Assay results taken from US12138304.

Key:
[1] = biological target: BG505 F14/Vt8 SOSIP (HIV-1 (clade A BG505)); assay: BLI dose response, antibody captured on anti-human Fc tips, SOSIP in solution
[2] = biological target: BG505 Vt8 SOSIP (HIV-1 (clade A BG505)); assay: as above
[3] = biological target: BG505 F14 SOSIP (HIV-1 (clade A BG505)); assay: BLI dose response, one site specific binding fit to the average of two experiments
[4] = biological target: BG505 F14/Vt8 SOSIP (HIV-1 (clade A BG505)); assay: as above
[5] = biological target: BG505 SOSIP (HIV-1 (clade A BG505)); assay: as above
[6] = biological target: BG505 Vt8 SOSIP (HIV-1 (clade A BG505)); assay: as above
[7] = biological target: soluble CD4 (sCD4) (UniProt P01730); assay: SPR, apparent affinity for sCD4
[8] = biological target: BG505 DS gp160 (cell surface expressed trimer) (HIV-1 (clade A BG505)); assay: flow cytometry, 293F cells expressing gp160; mean of 3 experiments ± SD
[9] = biological target: BG505 F14 gp160 (cell surface expressed trimer) (HIV-1 (clade A BG505)); assay: as above
[10] = biological target: BG505 F14/Vt8 gp160 (cell surface expressed trimer) (HIV-1 (clade A BG505)); assay: as above
[11] = biological target: BG505 Vt8 gp160 (cell surface expressed trimer) (HIV-1 (clade A BG505)); assay: as above
[12] = biological target: BG505 gp160 (cell surface expressed trimer) (HIV-1 (clade A BG505)); assay: as above
[13] = biological target: BG505 DS gp160 (cell surface expressed trimer) (HIV-1 (clade A BG505)); assay: flow cytometry, 293F cells expressing gp160, antibody 10 ug/mL
[14] = biological target: BG505 F14 gp160 (cell surface expressed trimer) (HIV-1 (clade A BG505)); assay: as above
[15] = biological target: BG505 F14/Vt8 gp160 (cell surface expressed trimer) (HIV-1 (clade A BG505)); assay: as above
[16] = biological target: BG505 Vt8 gp160 (cell surface expressed trimer) (HIV-1 (clade A BG505)); assay: as above
[17] = biological target: BG505 gp160 (cell surface expressed trimer) (HIV-1 (clade A BG505)); assay: as above

Substance | Kd [3] [nM] | Kd [4] [nM] | Kd [5] [nM] | Kd [6] [nM] | percentage of cells binding [8] [%] | percentage of cells binding [9] [%] | percentage of cells binding [10] [%] | percentage of cells binding [11] [%] | percentage of cells binding [12] [%] | further results
VRC01 (antibody) | 566 | 314 | 612 | 269 |  |  |  |  |  | fold enhancement of affinity relative to BG505 SOSIP [1]: 2 fold; fold enhancement of affinity relative to BG505 SOSIP [2]: 2 fold
BG505 SOSIP |  |  |  |  |  |  |  |  |  | Kd [7]: 67.9 nM
PGT125 (antibody) |  |  |  |  | 38.2 | 54.7 | 37.9 | 43.2 | 47.1 | 
N6 (antibody) |  |  |  |  | 41 | 53.9 | 40.3 | 44.4 | 45.3 | MFI [13]: 338 MFI; MFI [14]: 568 MFI; MFI [15]: 341 MFI; MFI [16]: 378 MFI; MFI [17]: 457 MFI
PGT121 (antibody) | 219 | 262 | 222 | 260 |  |  |  |  |  | 
PG9 (antibody) | 45.9 | 337 | 444 | 335 |  |  |  |  |  | 
PGT151 (antibody) | 23.3 | 24 | 26.9 | 24 |  |  |  |  |  | 
PGT145 (antibody) | 76.5 | 80.2 | 64.2 | 68 | 35.4 | 48.8 | 34.8 | 38.2 | 46 | 
VRC26 (antibody) | 50.2 | 50.6 | 67.6 | 60.4 |  |  |  |  |  | 
CH01 (antibody) |  |  |  |  | 20.8 | 37.7 | 22.1 | 30.2 | 32.8 | 
